Assay results: patent US20090118165A1 (CASE WESTERN RESERVE UNIVERSITY, published 2009)
Where no end group is shown, it is not given here. The star is where a group is joined. Biotin = O=C1N[C@H]2[C@H](CS[C@H]2CCCCC(=O)*)N1

Target: T1, Bax (endogenous, in lysate of human Dami megakaryocytic cells) (human, UniProt Q07812 1-192, limits assumed)
T1 construct: Endogenous protein in a cell lysate
Test: pull-down of biotin-labeled peptide with streptavidin beads from Dami cell lysate, Western blot with anti-Bax antibody
Protocol: FIG. 1 illustrates Western Blots of Dami cell lysates incubated in the absence or presence of 200 μM biotin-labeled peptides. The peptides were: KLPVM (SEQ ID NO:8) (scrambled negative control), VPMLK (SEQ ID NO:2) (human version), VPTLK (SEQ ID NO:5) (mouse version), and VPALR (SEQ ID NO:6) (rat version). Immuno-precipitation was performed with streptavidin beads. Western blot analysis of immune precipitated samples were performed with anti-Bax polyclonal antibody.
Co-precipitation was performed as previously described (Yoshida, T., et al., Bax-inhibiting peptide derived from mouse and rat Ku70. Biochem Biophys Res Commun, 2004. 321(4): p. 961-6). […] After the precleaning of 200 μl of sample with 20 μl of streptavidin beads (Amersham-Pharmacia Biotech) at 4° C. for 1 h, the samples were incubated with 200 μM of various biotin-labeled peptides (biotin-KLPVM (SEQ ID NO:8), VPMLK (SEQ ID NO:2), VPTLK (SEQ ID NO:5) or VPALR (SEQ ID NO:6) for 2 h. Streptavidin beads (20 μl) were added to the samples and the mixtures were incubated at 4° C. After 2 h of incubation, the beads were washed with 100 μl of Chaps buffer 3 times by centrifugation (1000 rpm, at 4° C., 15 sec). The beads were boiled in 40 μl of Laemmli buffer and the eluted proteins (20 μl) were analyzed by Western blotting with anti-human Bax polyclonal antibody (BD-Pharmingen). […]

T1 sequence (Q07812 whole entry): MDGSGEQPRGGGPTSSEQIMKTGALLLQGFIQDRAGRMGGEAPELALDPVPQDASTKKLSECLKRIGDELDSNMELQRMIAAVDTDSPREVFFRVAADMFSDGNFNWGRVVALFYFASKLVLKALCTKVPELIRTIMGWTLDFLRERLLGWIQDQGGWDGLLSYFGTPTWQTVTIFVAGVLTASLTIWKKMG

binding result: no binding (tested: 200 µM)
B1: biotin-KLPVM (SEQ ID NO:8), scrambled negative control peptide (peptide)
peptide: Biotin-KLPVM
notes: Synthetic scrambled control peptide, biotin-labeled, used at 200 uM in Dami cell lysate
